Test results: paper PMC8413711, “Structure-based analyses of neutralization antibodies interacting with naturally occurring SARS-CoV-2 RBD variants” (Cell Research, 2021)

Molecular target: T1, RBD-501Y.V2 (SARS-CoV-2, B.1.351 (501Y.V2) lineage …, K417N | E484K | N501Y)
T1 construct: also called K417N/E484K/N501Y ternary mutation; B.1.351 lineage RBD
Assay: SPR
Conditions: both partners purified

Binder	fold reduction of binding affinity against RBD [fold]
BD-503 (antibody, V domains shown, also called BD-503 NAb) VH: EVQLVESGGGLIQPGGSLRLSCAASGLIVSSNYMSWVRQAPGKGLEWVSVLYAGGSTDYAGSVKGRFTISRDNSKNTLYLQMNSLRAEDTAVYYCARDAAVYGIDVWGQGTTVTVSS VL: not shown	> 3
BD-515 (antibody, V domains shown) VH: EVQLVESGGGLVQPGGSLRLSCAASEFIVSRNYMSWVRQAPGKGLEWVSVIYSGGSTFYADSVKGRFTISRDNSKNTLYLQMNSLRAEDTGVYYCARDRGLVSDYWGQGTLVTVSS VL: DIQMTQSPSSLSASVGDRVTITCQASQDINKYLNWYQQKPGKAPKLLIFDASHLETGVPSRFSASGSGTDFTFTISSLQPEDIATYYCHQYDNLPRTFGQGTRLEIK	> 3
BD-623 (antibody, V domains shown) VH: EVQLVESGGGLVQPGGSLRLSCAASGFTVSSNYMSWVRQAPGKGLEWVSIIYSGGSTYYADSVKGRFTISRDNSKNTLYLQMNSLRAEDTAVYYCARDYAGRVWGQGTLVTVSS VL: QSALTQPASVSGSPGQSITISCTGTSSDVGSYNLVSWYQQRPGKAPKLILYEVTKRPSGVSNRFSGSKSGNTASLAISGLQAEDEADYYCCSYAGSSTWVFGGGTKLTVL	> 3
BD-604 (antibody, V domains shown) VH: EVQLVESGGGLIQPGGSLRLSCAASGIIVSSNYMTWVRQAPGKGLEWVSVIYSGGSTFYADSVKGRFTISRDNSKNTLYLQMSSLRAEDTAVYYCARDLGPYGMDVWGQGTTVTVSS VL: DIQLTQSPSFLSASVGDRVTITCRASQGISSDLAWYQQKPGKAPNLLIYAASTLQSGVPSRFSGSGSGTEFTLTISSLQPEDFATYYCQQLNSDLYTFGQGTKLEIK	60
